Bridge positions count the residues as written; N and C are the ends. Ends that are not written are not given here. * marks the point of attachment. Acm = CC(=O)NC*
Legend:
HveA (200t) [1] = biological target: T1, HveA (200t) (Homo sapiens, UniProt Q92956); experiment: competition ELISA, gD-1(306t) binding with immobilized HveA (200t); conditions: for inhibitory effect upon binding of gD-1 with HveA: FIG. 4C; for inhibition of binding of soluble wild type gD-1(306t) with immobilized HveA (200t): peptide at 0.5 millimolar, FIG. 4A
T1 sequence (Q92956 39-202 limits assumed): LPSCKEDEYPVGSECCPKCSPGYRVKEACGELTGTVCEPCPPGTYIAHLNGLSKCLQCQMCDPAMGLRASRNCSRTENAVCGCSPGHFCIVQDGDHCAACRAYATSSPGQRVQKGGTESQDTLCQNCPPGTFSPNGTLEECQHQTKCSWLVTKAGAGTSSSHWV
Experimental: (§1) Several ELISAs were performed to analyze interaction among HveA, the isolated phage peptides, gD, and LT-α. In these assays, microtiter wells were coated for 2 hours at 22° C. with 40 nanograms of HveA(200t), human factor H, trout complement C3, BSA, milk, or ovalbumin. Nonspecific binding in the wells was blocked using PBS containing 1% (w/v) BSA for 1 hour at 22° C. For competition assays, serial dilutions of gD-1 (306t), gD-1 (Δ290-299t), BSA, peptide BP-1, BP-2, or an unrelated cyclic peptide having the amino acid sequence ICVVQDWGHHRCT (SEQ ID NO:3) was added to each well. After 30 minutes of incubation at 22° C., recombinant protein (i.e., gD-1 (306t) at 0.4 microgram per milliliter, gD-1 (Δ290-299t) at 0.1 microgram per milliliter, or LT-α at 20 nanomolar), or phage supernatant was added to the well, and the samples were incubated for 1 hour. The wells were washed twice with PBS containing 0.05% (v/v) Tween-20 and incubated for one hour at 22° C. with at least one of the following: (i) a 1:1000 dilution of a peroxidase-labeled anti-M13 antibody, (ii) a 1:400 dilution of an anti-gD polyclonal antibody (R7), or (iii) an anti-LT-α monoclonal antibody (AG9).
(§2) Following incubation with the antibody, the wells were washed twice with PBS containing 0.05% (v/v) Tween-20 and incubated for 30 minutes at 22° C. with a 1:1000 dilution of a peroxidase-conjugated goat anti-rabbit immunoglobulin G (for polyclonal antibody detection) or with goat anti-mouse immunoglobulin G (for monoclonal antibody detection; Bio-Rad Laboratories, Richmond, Calif.). Color was developed by adding 2,2′-azino-di-(3-ethylbenzthiazolinesulfonate) (ABTS, Boehringer-Mannheim, Indianapolis, Ind.) and 0.5% (v/v) hydrogen peroxide. Absorbance was assessed at 405 nanometers. Net gD-1 or LT-α binding was calculated by subtracting the amount of secondary antibody bound with HveA from the amount of ligand bound with HveA.

HveA (200t) [2] = biological target: T1, HveA (200t); experiment: competition ELISA, binding of phage displaying BP-1 or BP-2 with HveA
Experimental: as §1, §2
The results of these experiments are depicted in FIG. 1A.

[3] = test system: HSV entry into Vero cells; experiment: HSV entry assay, Vero cells; format: cell-based, HSV-1; conditions: KOS-hrR3 virus; FIG. 7B
Experimental: (§3) CHO-HveA, CHO-HveC, and Vero cells were plated on 96-well dishes and incubated overnight. The cells were chilled at 4° C. for 10, minutes and then the medium was replaced with Ham's F-12 (CHO-HveA and CHO-HveC cells) or with Dulbecco's modified Eagle medium (DMEM) (Vero cells). These media were supplemented with 10% (v/v) bovine fetal serum and 10 millimolar HEPES, containing various concentrations of peptide, which had been previously filtered through a 0.2 micrometer pore size filter (Corning Glass Works, Corning, N.Y.). The plates were rocked at 4° C. for 90 minutes, at which time KOS-hrR3 virus (5×10^5 PFU/well) was added. The plates were rocked at 4° C. for 90 additional minutes and then incubated at 37° C. for 5 hours. Cells were lysed using 20% (v/v) Nonidet P-40 and β-galactosidase substrate (o-nitrophenyl-β-D-glucopyranoside) was added to each well. β-galactosidase activity was measured at selected time points using a Specromax 250 enzyme-linked immunosorbent assay (ELISA) reader.
(§4) Inhibition of gD-1 binding with HveA mediated by BP-2, as indicated in FIGS. 4A-4C, raised the question of whether this peptide has a blocking effect on viral entry into mammalian cells. […]

[4] = test system: HSV-1 entry into CHO-HveA cells; experiment: HSV entry assay, CHO-HveA cells (β-galactosidase reporter virus KOS-hrR3); format: cell-based; conditions: FIG. 7A
Experimental: as §3
Inhibition of gD-1 binding with HveA mediated by BP-2, as indicated in FIGS. 4A-4C, raised the question of whether this peptide has a blocking effect on viral entry into mammalian cells. To test this possibility, the effect of BP-2 and related peptides (i.e., BP-1, BP-2 (3, 9 Ala), scrambled BP-2, control peptide, and gD-1(Δ290-299t)) on HSV-1 entry into CHO cells expressing either HveA (CHO-HveA cells), or HveC (CHO-HveC cells), and into Vero cells was examined. Cell monolayers were incubated with increasing concentrations of peptide at 4° C. for 90 minutes. Following incubation, the cells were infected with the β-galactosidase reporter virus, KOS-hrR3. The results of these experiments are depicted in FIGS. 7A and 7B.

[5] = test system: HSV entry into CHO-HveC cells; experiment: HSV entry assay, CHO-HveC cells; format: cell-based, HSV-1; conditions: KOS-hrR3 virus
Experimental: as §3, §4

HveA (200t) [6] = biological target: T2, HveA (200t) (Homo sapiens, UniProt Q92956); experiment: competition ELISA, gD-1 (Δ290-299t) binding with HveA; conditions: FIG. 4B
T2 sequence (Q92956 39-200): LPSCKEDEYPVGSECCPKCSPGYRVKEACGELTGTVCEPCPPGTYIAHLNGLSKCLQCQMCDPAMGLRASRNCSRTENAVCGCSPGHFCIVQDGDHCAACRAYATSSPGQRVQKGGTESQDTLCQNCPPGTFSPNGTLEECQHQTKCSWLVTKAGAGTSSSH
Experimental: Several ELISAs were performed to analyze interaction among HveA, the isolated phage peptides, gD, and LT-α. In these assays, microtiter wells were coated for 2 hours at 22° C. with 40 nanograms of HveA(200t), human factor H, trout complement C3, BSA, milk, or ovalbumin. Nonspecific binding in the wells was blocked using PBS containing 1% (w/v) BSA for 1 hour at 22° C. For competition assays, serial dilutions of gD-1 (306t), gD-1 (Δ290-299t), BSA, peptide BP-1, BP-2, or an unrelated cyclic peptide having the amino acid sequence ICVVQDWGHHRCT (SEQ ID NO:3) was added to each well. […]
as §2, with “Color was developed by adding 2,2′-azino-di-(3-ethylbenzthiazolinesulfonate) (ABTS, Boehringer-Mannheim, Indianapolis, Ind.) and 0.5% (v/v) hydrogen peroxide.” left out

In the case of “scrambled sequence BP-2: scrambled primary sequence of the parental cyclic BP-2, maintaining the position of the two cysteines, SEQ ID NO:6 (YMCRFVDGCHGS; disulfide 3-9 (inferred))”, the “inhibitory effect upon binding of gD-1 with HveA” value (from here on “inhibitory effect upon binding”) (HveA (200t) [1]) is reported as “no inhibitory effect”.

“BP-1: cyclic 26-residue HveA-binding peptide, SEQ ID NO:4, from the 27-mer phage library (SISCSRGLVCLLPRLTNESGNDRFDS; disulfide 4-10 (inferred))” was tested, and the “inhibition of binding of soluble wild type gD-1(306t) with immobilized HveA (200t)” value (HveA (200t) [1]) was 20%, the “inhibition of binding of phage displaying BP-2 to HveA” value (HveA (200t) [2]; FIG. 3A) was “vice versa” and the “effect on HSV entry into Vero cells” value [3] was “Neither BP-1 or BP-2 had any effect”. The “blocking of HSV-1 entry into CHO-HveA cells” value (“blocking” below) [4] was “neither BP-1 nor any of the BP-2 analogs blocked virus entry” and the “effect on HSV entry into CHO-HveC cells” value [5] was “Neither BP-1 or BP-2 had any effect”.

For “ICVVQDWGHHRCT [cyclic control peptide, reference compound]”, the “inhibitory effect upon binding” value (HveA (200t) [1]) was “no inhibitory effect”.

In the case of “BP-2 (3, 9 Ala): linear form of BP-2 generated by substitution of the cysteine residues with alanine, SEQ ID NO:2 (GSADGFRVAYMH; Peptide corresponds to BP-2 (3,9 Ala))”, the “inhibitory effect upon binding” value (HveA (200t) [1]) is reported as “no inhibitory effect”.

For “BP-1 (4, 10 Acm): linear BP-1 peptide generated by reduction and alkylation of the 26-mer peptide, SEQ ID NO:1 (SISC(Acm)SRGLVC(Acm)LLPRLTNESGNDRFDS)”, the “inhibitory effect upon binding” value (HveA (200t) [1]) was “no inhibitory effect”.

With “BP-2: cyclic 12-residue HveA-binding peptide, SEQ ID NO:5, from the 12-mer phage library (GSCDGFRVCYMH; disulfide 3-9 (inferred))” the “inhibition of binding of soluble wild type gD-1(306t) with immobilized HveA (200t)” value (HveA (200t) [1]) was 80%, the “inhibition of binding of gD-1 (Δ290-299t) with HveA” value (HveA (200t) [6]) was 40% and the “inhibition of binding of phage displaying BP-1 to HveA” value (HveA (200t) [2]; FIG. 3B) was “inhibited”. The “effect on HSV entry into Vero cells” value [3] was “Neither BP-1 or BP-2 had any effect”, the “blocking” value [4] was “blocked entry” and the “effect on HSV entry into CHO-HveC cells” value [5] was “Neither BP-1 or BP-2 had any effect”.

B1: gD-1 (306t): soluble wild type HSV glycoprotein D, from recombinant baculovirus-infected cells (protein)
chain: KYALVDASLKMADPNRFRGKDLPVLDQLTDPPGVRRVYHIQAGLPDPFQPPSLPITVYYAVLERACRSVLLNAPSEAPQIVRGASEDVRKQPYNLTIAWFRMGGNCAIPITVMEYTECSYNKSLGACPIRTQPRWNYYDSFSAVSEDNLGFLMHAPAFETAGTYLRLVKINDWTEITQFILEHRAKGSCKYALPLRIPPSACLSPQAYQQGVTVDSIGMLPRFIPENQRTVAVYSLKIAGWHGPKAPYTSTLLPPELSETPNATQPELAPEDPEDSALLEDPVGTVAPQIPPNWHIPSIQDAATPY
modifications: left off: small tags and cut ends
notes: soluble wild type HSV glycoprotein D, from recombinant baculovirus-infected cells
In the case of B1, the “inhibition of HveA-binding phage clones binding with HveA (200t)” value (HveA (200t) [2]; fluid-phase soluble competitor, FIG. 1A) is reported as “significantly inhibited” and the “blocking” value [4] is reported as “failed to do so”.
